Test results published in the DeepSol protein solubility set.

assay: soluble on expression in E. coli; label from the status in PepcDB or PDB records

With “MLALGIEGTAHTLGIGIVSEDKVLANVFDTLTTEKGGIHPKEAAEHHARLMKPLLRKALSEAGVSLDDIDVIAFSQGPGLGPALRVVATAARALAVKYRKPIVGVNHCIAHVEITKMFGVKDPVGLYVSGGNTQVLALEGGRYRVFGETLDIGIGNAIDVFARELGLGFPGGPKVEKLAEKGEKYIELPYAVKGMDLSFSGLLTEAIRKYRSGKYRVEDLAYSFQETAFAALVEVTERAVAHTEKDEVVLVGGVAANNRLREMLRIMTEDRGIKFFVPPYDLCRDNGAMIAYTGLRMYKAGISFRLEETIVKQKFRTDEVEIVWHHHHHH” as the sequence, how does the “soluble on expression in E. coli” value read?
Its value is “soluble”.

For “MGSDKIHHHHHHMKRSIEDTPVVFLGAGNLATNLAKALYRKGFRIMQVYSRTEESARTLANEVEAEYITDLKDVSNEARLYIISLKDAAFVELLPQITDGKQHALLVHTAGSIPMNIWEGHAERYGVFYPMQTFSKQREVDFREVPFFIEAKRPEDTELLKAVAGTLSDKVYEADSEQRRSLHLAAVFTCNFTNHMYALAAELLEKYHLPFDVMLPLIDETARKVHELAPRDAQTGPAVRYDENVMNKHLSMLADSQALQEIYKLMSKSIHEHHQL”, which “soluble on expression in E. coli” value is on record?
Its value is “not soluble”.

Which “soluble on expression in E. coli” value does the source give for “MGSDKIHHHHHHMETFGGQVGRQEVPESSIDRYRGKLPNQLLTYWAEHGWCGYGDGIFWTVNPQEYDAVVASWLEGTKFETFDAYHLIARSAFGDLYLWGEEIGASLKITSILSRYTTHKSLCLGSQMDKGLQSFILSRKVGSNDYGDLFRPARKKLGTLHHDEMYGFVPALMLGGADTLDHLEKVKAVEHLVLLSQLSDLESYDFQDL” here?
The value was “not soluble”.

With “MTTTTPIRLLVRPITAGDNLAIANVIREVSAEFGLTADKGYTVSDPNLDHLYELYSQPRSAYWVIEVDGHIAGGGGVAPLLGGEADLCELQKMYFLPILRGKGLAKQLALQALAFARQQGFGRCYLETTASLTSAVGLYERLGFEHIGGAMGNTGHVDCEVTMLKTL” as the sequence, how does the “soluble on expression in E. coli” value read?
Its value is “not soluble”.

With “MAEPKKLANGKWQLRFKYKDSITNEWKNKMITRSTKKACRDAETEFKSKIMRGENTEAIKLLDFYDIWVDTFKKNKVSAGRMQKIALTRKNLHDFFGDKQLLKGVTKVKYQQWINWLAKPGNINEKGLAVETVSNRHNIVKSMFLEALDMQYIHSNPTRNIKLTGQVPEKKSNKTISIDDLTKFKEALLSRENTTSKYFILVQLYTGARYQEVAALTWDSIDESNEVIKIKNAYKYDAGQYRIGPTKSEAGVRNIDVPSSLFYYLKKYEMEQKKKILRGDLRNPQNFAFVSKKNSWPISNSSVNKYIKETCELANIERISSHSFRHARSDLLILAEADPIYIKTQLGHKEIIQSYEYASATEANRKKNKEKYENKYKDIL” as the sequence, how does the “soluble on expression in E. coli” value read?
The value was “not soluble”.

With “MSNPQDDKPIDQEQEAHVILKVKSQDGDEVLFKNKKSAPLKKLMYVYCDRRGLKLDAFAFIFNGARIGGLETPDELDMEDGDVIDACRAMSGGLRANQRQWSYMLFDHNGL” as the sequence, how does the “soluble on expression in E. coli” value read?
The value was “not soluble”.

With “MGSDKIHHHHHHMVAIEKGGARLVFAPEVGGAVAAFTVDGREVLRPTAPQVDDALLTANFPLVSFCNRIPNGRFEWRGTSVTLPPNLEGHPHPLHGQGWRMPWAVEAIETDRALLVFEHPAGDWPWAYRAEQAFTLSETGFRVTLTVINTGEEDMPAGLGFHPYFPARPGERLAAQNDGVWLIDEDVLPTVRHAGRWGPDWAVGAPVAGHALIDHCYTGWNQRAVLSAPGRPDTVITASPDCAWLHVYAPPGEGYYCVEPCASRPNPFGEGETGMVTLCPGERRSIWMEIATG” as the sequence, how does the “soluble on expression in E. coli” value read?
Its value is “not soluble”.

With “MGSDKIHHHHHHMLAQGQRFEGLLCGDDSSRCEVVEMAKLTQFLISGACALLITATSAIADPIAPAGKAIGQDGGGHTIYQVDANGISIGYKLIGQGAPMVMIMGLGGTADNWPPQVIEALSKNHQLILMDNRGMGHTTANDTPFSYPLFAADVIGLLDALGIKRSDVLGYSMGSTITQQLLLQYPDRFNKALIHATSTDGSNVAKALHGRVPTDPIVARQVEATTHWKTPLDKLPSIDNQVMLVVGTADNVVGTESSKTIASAIPGAWLVQFKGATHHLMYETPEGFSAAALTFFETNETVTPKIEPNASVAPPPTQP” as the sequence, how does the “soluble on expression in E. coli” value read?
The value was “not soluble”.

Which “soluble on expression in E. coli” value does the source give for “MGSDKIHHHHHHMKIDSEHLEILAVIVEKGGLTEGAEALGKSQPSVSRTMALLEERIGTPLFEAGRRPLRPTELGNQLARLGAKIRTQNLEASRLVQRYRQGQAGRLRLGGTPIFFDGVVAGMVAEFQNRHSDVQITQTYGYFEDLSAGLRSGALDLAILPMHANMIPADMQFTPLLAGRNVIVGSATHPLARRGAITLADIEPYSWIAPPPDSPLFRDLQRSLKSIGLDDFKVSFSGGTLASIFSVVLGSDSLTVLPYSVVFTHQRVIPLQALPLRIEHPDRQLGLLTATERMPPPALERFVAFVTEKFKHLSTRMEHEQQVTRRRG” here?
Its value is “not soluble”.

With “MGTSVTPNIFDFLIKIDPFDKLPEPVVESIANSVKVKYLVRGETIGFSALCDQRYLYIIRTGAIEQRTPNGELRARLGQDDQFGFTFLDPLENAEDGYQAEAIEDSLLYLIPHSELKLVSEEHPEFADYFAAQANVRLSSAVKYVCRKEEKGLFFRTVGEIASENIAIVDVNDSIRSVAQTMCGKQRSSCAVVMKEGEIIGLVTDRDMTKSVVAQDMDTNQPIADVMTPNPVLIEDDAKVIQAISLMLQYNIRCLPVVHGKQVKGLLTTTHLVHNHRTQSLFLIEKIKYASSLNALAALKEERQTIFQALVESGVSAEIQGRVMSMIMDAFTRRIIQLNEELLGPPPCDYAWLVAGSHARNEVHMLSDQDSAIVLSDDATEEHKLYFTHLAMRVCNGLAACGYPLCDGKYMAASPKWCQPIRRWKEYYQKWVASPEYNKLLSISVFLEVRAIHGNREFVDQIQQHLHDCIQKSPSFIPALVRDAIDTQPPLGIFNNLVLEKGGENSNTLNIKKYALNLIIDLARIFSLAAGGSLTGTEERFRYAAQHGTLSKDSVENIIGAYRFITQVRFRHQLNAILAGTTPDNHIAPDDFSSFERKHLKDAFKIISELQDVAKLKFVKGA” as the sequence, how does the “soluble on expression in E. coli” value read?
The value was “not soluble”.

With “MDNHKCVLVIDKALPQGLIANTAAVLTLSLGKLHPELIGADNVNKNGEIHTGITSIPIPILASSSHKIKEIRASLKEEATLVDFSNVAQTTKNYQDYSDKLAATRPEDIEYLGIAIYGTKKIINKHTGNLGLIRLEHHHHHH” as the sequence, how does the “soluble on expression in E. coli” value read?
The value was “soluble”.

For “MGSDKIHHHHHHVRIESIRTKNFKILKDTTIRNIPAMAIFLGANGSGKSTFFDIFGFLHDCLTDNVRAALLKRGGFKEVVSRGQSGPIEFEIKFRSAPGEPLVTYELHINLDDKGLPIVSKELLKYRRGQKGRPWHFLDFSNGVGHAIVNESEYGKPGVQEAREQQTLDSPDILAIKGLGQFQKYKQIASFRRLIEGWHVSDFRIESARSTNDAGYAEHLSATGDNLALVTQFMHEHYSDRFQQVLEKIAQRVPGIKSVEAKETADGRIVLRFQNEEFKDPFISRYVSDGTLKMFAYLILLYDPTPHPLLCIEEPENQLHPDLLLELAEEFRAYASNGGQVFISTHSPDFVNAVQLEELFWLCQGNNGFSKVVRASDEPLLQSLVAEGDLPGSLWKQGFFEGAGPL”, which “soluble on expression in E. coli” value is on record?
The value was “not soluble”.

With “MKSYQPKSLLNDLQYYITPPHDCSYLDNKSARMVFLDPIHRIDVVTLSELSRVGFRRSGDFVYRPECHLCRQCLSCRVPVHDFNMNSLQKKAWKRNQDLRMSIVPTHAATSVHYQLYERYINERHADGDMFPPSLDQFEKFLVHSCTESFFLELWKDDRLICVSTCDLMDDGLSAVYTFFDPDENRRSLGVFAILKQLEYVKSIDLDYLYLGYWVPHSQKMNYKSQYIPLELLLDGQWRRLNRALSQEEISQLGESLMTILPSEWNSMIIKLEHHHHHH” as the sequence, how does the “soluble on expression in E. coli” value read?
The value was “not soluble”.

For “SNAAQISDGKQYITLDKPVAGEPQVLEFFSFYCPHCYQFEEVLHVSDNVKKKLPEGTKMTKYHVEFLGPLGKELTQAWAVAMALGVEDKVTVPLFEAVQKTQTVQSAADIRKVFVDAGVKGEDYDAAWNSFVVKSLVAQQEKAAADLQLQGVPAMFVNGKYQINPQGMDTSSMDVFVQQYADTVKYLVDKK”, which “soluble on expression in E. coli” value is on record?
The value was “soluble”.

Which “soluble on expression in E. coli” value does the source give for “SAPFDVIGPQEPILAVVGEDAELPCRLSPNVSAKGMELRWFREKVSPAVFVSREGQEQEGEEMAEYRGRVSLVEDHIAEGSVAVRIQEVKASDDGEYRCFFRQDENYEEAIVHLKVAALGSDPHISMKVQESGEIQLECTSVGWYPEPQVQWRTHRGEEFPSMSESRNPDEEGLFTVRASVIIRDSSMKNVSCCIRNLLLGQEKEVEVSIPASFFPRLT” here?
The value was “not soluble”.

With “MATKHDQILKHIEDLPIGDRISVRSIAKSLSVSEGTAYRAIKDAENIGLVSTIQRVGTIRIERKLKKHIEKLTFGEVVRIIEGDVLGGSSGLDKVLNKFVIGAMTETAMTRYITPGSLMIVGNRQGVQKLALENGAAVLITGGFETSEEIAQLADRLGMPVLRTTYDTFTVATMINRALSDQLIKKDILLVSDIYTALEKTNYLLTTQTIADYQALSESTHHSRFPVVNKKLRLVGIVTAKDVIGKSEHLTVDKVMTKDPNVVKKMMSVASVSHQMIWDGLEVMPVVEDDLALVGIVSRQDVMKAMQLVQRQPQIADTISDQISGEVMPVEENGKETTRFRFSVAPQMVNSVGTISFGVLSEIISNVTQRTMLMNQKRNVLIEQVNLHYLRLIQLESELDIRPRILEIGRRSAKLDIEVYLENVIVAKAIVVCQVMERT” as the sequence, how does the “soluble on expression in E. coli” value read?
The value was “not soluble”.

For “GPGSMSLVESQKGMTDLIPCNEQCGGDYGNYSFGQGDLDVTVTVPLPENTTKKMLLVQITASKLIVGLRGKPPIISGDFYRPVKASECTWCIEDKRLLVINMVKTNSQHEEWWPCVVVGERQIDMKTLKPPSKHVSELDESAQATIAKMMFDQRQKMQNLPTSEEMRLQEMMRAAQGAK”, which “soluble on expression in E. coli” value is on record?
Its value is “soluble”.

With “MGSDKIHHHHHHMVDFNNTLESAVKSVLKWEEKQIITETTIIRDVQGKVSLFLKSEQKATESDISNLEEILQNDLNGFFTGKIFWEKCDKKDKLRIEIIKSIIEESREEWKTEDGVDFYICERPIAKKAWVNATQDVEPVWQYQEAECSNKAKVVTFYSFKGGMGRTTALAGIALNLIEQNKNVMMIDMDIEAPGLSTLFFDDIVVEKGLLDYLIERPLNEQCDIHDYVLEVTDPALLKENDGNLYLMPAGKVDETYLQKLARIDYQDNRENNLKSSIKNLLEKLDNTYHPDYILIDARAGFHDMGGIAVAQIPHGAVLIGNGSKQSWDGMTQVIRTIAKGNTEEFSIMIVDSMCERATAERAIEQRKKFLNMAYTVCMENYYNEDQVMPGIDAEGVEHQPEYIPYDSELMQGFELFSDGYNDSEIRVQAYRDLLTGSAYKDITKRIQSWFGE” as the sequence, how does the “soluble on expression in E. coli” value read?
The value was “not soluble”.

With “ITDRKVLERELATRNAFLTAVLQTSVSAIVALNAEGGIVYANDEARRLLVLQPHRGGLRMEAVLETLDGRPLPEADMPSALVRATGAPLHDLRYAIRRPDGQFGILSINAAPLPQAADDARIVISVTDIT” as the sequence, how does the “soluble on expression in E. coli” value read?
Its value is “not soluble”.

Which “soluble on expression in E. coli” value does the source give for “MARLNVNPTRMELSRLKKQLTTATRGHKLLKDKQDELMRRFIALVKENNELRIQVEQEVTDALSNFVLANATLNEAFIEELVAIPAEKVELEIIEQNILSVPVPKMIFDYDESVQEAPLDYGYVNSNSELDQAFAKISSILPKLLALANVEKTCQLLSKEIEKTRRRVNALEYMTIPQLEETIYYIQMKLEENERGEITRLIKIKSMNKENLEHHHHHH” here?
Its value is “not soluble”.

Which “soluble on expression in E. coli” value does the source give for “MGSDKIHHHHHHMANEATQELFQVLDNTAIILQNELEISYLEAVYETGENLFQKEVLQKEELSSEKQLKLQESYESIELENFSNEEIRKGLQLALLKGMKHGIQVNHQMTPDSIGFIVAYLLEKVIQKKKNISILDPACGTANLLTTVINQLELKGDVDVHASGVDVDDLLISLALVGADLQRQKMTLLHQDGLANLLVDPVDVVISDLPVGYYPDDENAKTFELCREEGHSFAHFLFIEQGMRYTKPGGYLFFLVPDAMFGTSDFAKVDKFIKKNGHIEGIIKLPETLFKSEQARKSILILRKADVNVKPPKEVLLANLSSLTDPSVTAPILAEIENWFKSKQ” here?
The value was “not soluble”.
